The values below come from the DeepSol protein solubility set.

A short description of this data set: soluble on expression in E. coli; label from the status in PepcDB or PDB records.
Consider “MRERAYFIGAHAYSAPIIEPALYLVATPIGNLADITLRALQVLAGVDILACEDTRVTRVLLERYGIQKKTFLYHEYNAQKAGPKLLTALEENKAIALVSDAGTPLISDPGFRLVEEARKAGHKIVPIPGASALLAALVATGLPTDSFFFAGFLSARKAQRQKRLEQLKTIPATLVFYESPHRLVETLQDMVALFSADRPAAICRELTKKFETVDVSNLGNLSESYGKQAHIRGEIVVLVGQKLSSLNVMSDHEIDEMLLELARTYSAAKAASLASKKTGLKKQELFQRLNFLKDA”, for which the “soluble on expression in E. coli” value is reported as “not soluble”. With “MRERTEARRRRIEEVLRRRQPDLTVLLENVHKPHNLSAILRTCDAVGVLEAHAVNPTGGVPTFNETSGGSHKWVYLRVHPDLHEAFRFLKERGFTVYATALREDARDFREVDYTKPTAVLFGAEKWGVSEEALALADGAIKIPMLGMVQSLNVSVAAAVILFEAQRQRLKAGLYDRPRLDPELYQKVLADWLRK”, the “soluble on expression in E. coli” value is listed as “soluble”.

Turning to “MRFFYDTEFIEDGETIDLVSIGIVCEDGREYYAVSTDADHSRANKWVRDNVLDKMPNPSSTLWKSNATIRQEVYEFLTSTPGNTELWAWVGAYDHVVLAQLWGDMRGLPKELPRYTHELKQYWEMAGRPRLPKLPEGNHDALVDARHNLQKFKICAESLPLNKRNVVNR”, the “soluble on expression in E. coli” value is “not soluble”. The result for “MRFPPLLFFQDSEAVKRIANSVRGTKDDDAEIKDHSMRFIRNAISGDQQKEILNVDMLRYIAWVLVALNENIVTARTVIRERDAVEDALKNQQPEDIENFADDLKINMKYNRDLERFEIGVFDFVKYASRVTGSQYRLSNQSVIKGIVYCQKDVAIKILRESFVSNMFKVIDSIDQTTASPVLSDQTDSINELREFYKKSVYAKLTIGRGNTKAFPPCMKEIIRNLHEGINVPHMGRLAIASFLHKVGYTEDEIVEYFRNAPDFDESITRYQIKHLSGEISGVEYSPPKCETMRSNHLCFMDDDKLCHQDWMKHPLTYYEVKSRRLGMAGDPNSLEHHHHHH” reads “not soluble”; that for “MRFTISAAKPEDCKDIERMIMELAVYENMPDQVKISHKELERDGFGPNPFYHCLVAEVPEEHKSKDGNTTVGYVIFFYTYSTWKGRTVYMEDLYVMPEFRGNGIGKALLGAVAKEAKDQLCSRLQFSVLDWNKPSLDFYMAKGAEDLTAKEGWHFLRFHGMALDNLAQEAP”, “not soluble”.

Regarding “MRGFAQVWHGLREKKRAECTPLNAFLTYVTLPWNSILNDLLSERQKRPILTFEFDAPAHNHD”, the “soluble on expression in E. coli” value is listed as “not soluble”. For the sequence “MRGSGQFRVIGPGHPIRALVGDEAELPCRISPGKNATGMEVGWYRSPFSRVVHLYRNGKDQDAEQAPEYRGRTELLKESIGEGKVALRIQNVRFSDEGGYTCFFRDAEYQEEAAVELKVEDPFYWINPGRSRSHHHHHH”, the “soluble on expression in E. coli” value is “soluble”. The result for “MRGSHHHHHHGMASMVVNNPNNWHWVDKNCIGWAKEYFKQKLVGVEAGSVKDKKYAKIKSVSSIEGDCEVNQRKGKVISLFDLKITVLIEGHVDSKDGSALPFEGSINVPEVAFDSEASSYQFDISIFKETSELSEAKPLIRSELLPKLRQIFQQFGKDLLATHGNDIQV” reads “soluble”. As to “MRGSHHHHHHGMSCSKSVIKEEMLIDLHLEGTFNGHYFEIKGKGKGQPNEGTNTVTLEVTKGGPLPFGWHILCPQFQYGNKAFVHHPDNIHDYLKLSFPEGYTWERSMHFEDGGLCCITNDISLTGNCFYYDIKFTGLNFPPNGPVVQKKTTGWEPSTERLYPRDGVLIGDIHHALTVEGGGHYACDIKTVYRAKKAALKMPGYHYVDTKLVIWNNDKEFMKVEEHEIAVARHHPFYEPKKDK”, the “soluble on expression in E. coli” value is given as “soluble”. As to “MRGSHHHHHHGSAPIKVGDAIPAVEVFEGEPGNKVNLAELFKGKKGVLFGVPGAFTPGCSKTHLPGFVEQAEALKAKGVQVVASLSVNDAFVTGEWGRAHKAEGKVRLLADPTGAFGKETDLLLDDSLVSIFGNRRLKRFSMVVQDGIVKALNVEPDGTGLTCSLAPNIISQL”, the “soluble on expression in E. coli” value is “soluble”. Next, “MRGSHHHHHHGSEEASSTGRNFNVEKINGEWHTIILASDKREKIEDNGNFRLFLEQIHVLEKSLVLKFHGRVRLLNNWDCSELSMVADKTEKAGEYSVTYDGFNTFTIPKTDYDNFLMAHLINEKDGETFQLMGLYGREPDLSSDIKERFAQLCEEHGILRENIIDLSNANRCLQARE”: “soluble”; “MRGSHHHHHHGSMDAQSAAKCLTAVRRHSPLVHSITNNVVTNFTANGLLALGASPVMAYAKEEVADMAKIAGALVLNIGTLSKESVEAMIIAGKSANEHGVPVILDPVGAGATPFRTESARDIIREVRLAAIRGNAAEIAHTVGVTDWLIKGVDAGEGGGDIIRLAQQAAQKLNTVIAITGEVDVIADTSHVYTLHNGHKLLTKVTGAGSLLTSVVGAFCAVEENPLFAAIAAISSYGVAAQLAAQQTADKGPGSFQIELLNKLSTVTEQDVQEWATIERVTVS”: “soluble”. The result for “MRHDTRLSRVLHILIHMEKHEGAATSENIAAMLQTNPVVVRRTMAGLREHGYVSSEKGHGGGWVLAQPLTEITLLDIYRALGAPELFSIGLAGDNPNCVIEQAVNAALFDAMNEAENILLSRFGSITLSTLAEESIDRWSKLSNCPSAMEQL” reads “not soluble”; that for “MRIARRAVEEWVEHGRRLDVEAGGKLGRPGAAFVTLERRSGDGWELRGCIGVVRPVLPLVEAVVTAAVDAASSDPRFEPLSREELDRVRVEVTVLGSMEPLPKKPHERPALVEVGLHGLYVEKPPYAGLLLPQVAVDEGWDPILFLTWACIKAGLPGTCWLREDVEIYRFRAAVWRETEPRGPVVRRDLAREAAAKGVNARVSTHISSCKSLEHHHHHHTHISSCKSLEHHHHHHTHISSCKSLEHHHHHHTHISSCKSLEHHHHHHTHISSCKSLEHHHHHHTHISSCKSLEHHHHHHTHISSCKSLEHHHHHH”, “not soluble”; that for “MRIDFGAGDEISFIKKGHAGVIKLARSSALNALNGRMVSALKKALSVWETDDDVSCVLIEGEGRAFCAGGDVVEIYHMEEKISSYQYFNDEYRLNAYIKHFRKPYISFLNGIWMGGGVGISIYGSHRIVTENTLFAMPESAIGFFPDVGASFFLPSLPDHFGIYLALTGARIKWGDCLNLGLATHAVPEIELECIRKAIIEQGNPQLALEEHAITKDYETSHEIRSVINACFGTHTLEECMELLYKKSNEGLFFARECYDILQSRSPTSLKVIWKQMKQNSSQTLEECMKIENRIAHHMINSHDFREGVRAMLIDKDKTPKWQPDKLSNITDEMIDAYFQPVEKELLF”, “not soluble”. Turning to “MRIGQYQLRNRLIAAPMAGITDRPFRTLCYEMGAGLTVSEMMSSNPQVWESDKSRLRMVHIDEPGIRTVQIAGSDPKEMADAARINVESGAQIIDINMGCPAKKVNRKLAGSALLQYPDVVKSILTEVVNAVDVPVTLKIRTGWAPEHRNCEEIAQLAEDCGIQALTIHGRTRACLFNGEAEYDSIRAVKQKVSIPVIANGDITDPLKARAVLDYTGADALMIGRAAQGRPWIFREIQHYLDTGELLPPLPLAEVKRLLCAHVRELHDFYGPAKGYRIARKHVSWYLQEHAPNDQFRRTFNAIEDASEQLEALEAYFENFA”, the “soluble on expression in E. coli” value is given as “not soluble”. For “MRILIASQPIAGHVLPLREIARELARRGHELRWYTGRKFRPQVEAAGAVWEGFVHARDYDDANFDAAFPGRSARRGLAQLLFDLRHVFVGQMEGQFYDLRDLERRWRPDVVLADQTVGAALLREELGGPPVALLGVLPLGIASRDTAPFGLGLAPLGGAAGQLRNRALQVLTERVVFRGISAQLADLCTWLGLPARSFAPPVAPSLMLQPSVPRLEYLRRDLPPQVRFIGPLVLPAGEFTPPAWWNDILTAERPVVLVTQGTLATRPEQLLRPALAALADEDVLVVAAGVAPERLGPLPANARAAAFVPFTALLPHVAVSLTNGGYGGTVQALSHGVPCVVAGRSEDKAEVAARVAYSGAGLNLGTATPSPARIRAAVRRVLREPAFREQAGELGHELRQHDAPREAADWLETLGGKKLEHHHHHH”, the “soluble on expression in E. coli” value is reported as “not soluble”.

As to “MRILILGMGGTIASVKGERGYESALSVSKILKLAGISSEAKIEARDLMNVDSTLIQPSDWERLAKEIEKEVWEYDGIVITHGTDTMAYSASMLSFMLRNPPIPIVLTGSMLPITEKNSDAPFNLRTALEFVKLGIRGIYIAFNGKVMLGVRASKIRSMGFDAFESINYPNVAEIKDDKLRILHIPDFYGDEFFSDIKYEPKVLVIKLIPGLSGDIVREALRLGYKGIILEGYGVGGIPYRGTDLFEVVSSISKRIPVVLTTQAIYDGVDLQRYKVGRIALEAGVIPAGDMTKEATITKLMWILGHTKNIEEVKQLMGKNITGELTRVS”, the “soluble on expression in E. coli” value is reported as “soluble”.

Turning to “MRILLSNDDGVHAPGIQTLAKALREFADVQVVAPDRNRSGASNSLTLESSLRTFTFDNGDIAVQMGTPTDCVYLGVNALMRPRPDIVVSGINAGPNLGDDVIYSGTVAAAMEGRHLGFPALAVSLNGYQHYDTAAAVTCALLRGLSREPLRTGRILNVNVPDLPLAQVKGIRVTRCGSRHPADKVIPQEDPRGNTLYWIGPPGDKYDAGPDTDFAAVDEGYVSVTPLHVDLTAHSAHDVVSDWLDSVGVGTQW”, the “soluble on expression in E. coli” value is “not soluble”. For “MRILTLGLDGSGEFAFQSHAHTDHFANGRLIFATRPTIFLSHLRNSRYYIPVDFGKKFYIGDFKAKLYPSGHILGSSGIKIWLDEGTLYYTGDVKVKKLRTVERAKLPKADFLIIESTFGLPRFTFPDPRESEKVIIGIVEDLIDRGKVPTFMANPYGKAQEIIKILNVHGYSVSVDREIAKVSKFYMKFGVRLKFEKEGEVKVSSSKGISVSGFGRIKLSNHADFWELLEIVERVNPEKVFTVYGHAEAFAKILNGLGYEAKSIRRNQKLEVWLEHHHHHH”, the “soluble on expression in E. coli” value was “not soluble”. Take “MRILVSCANGSGTSLMMMRSVEKAMKELGVPITKIHHCAISEGKSSASQYDVVFTPVNFLQMFQQAEKRGVTVIGIKNVMSAKEIQEKYMASDRYQKSE”: the “soluble on expression in E. coli” value was “not soluble”.

For “MRITASLRTFCHLSTPHSDSTTSRLWIDEVTAVARQRDRDSFMRIYDHFAPRLLRYLTGLNVPEGQAEELVQEVLLKLWHKAESFDPSKASLGTWLFRIARNLYIDSVRKDRGWVQVQNSLEQLERLEAPVDRTLDYSQRQEQQLNSAIQNLPTDQAKVLRMSYFEALSHREISERLDMPLGTVKSCLRLAFQKLRSRIEES”, the “soluble on expression in E. coli” value is “not soluble”.

For the sequence “MRITTKVGDKGSTRLFGGEEVWKDSPIIEANGTLDELTSFIGEAKHYVDEEMKGILEEIQNDIYKIMGEIGSKGKIEGISEERIKWLEGLISRYEEMVNLKSFVLPGGTLESAKLDVCRTIARRAERKVATVLREFGIGKEALVYLNRLSDLLFLLARVIEIEKNKLKEVRS”, the “soluble on expression in E. coli” value is listed as “soluble”. The result for “MRKGINMTAELLVNVTPSETRVAYIDGGILQEIHIEREARRGIVGNIYKGRVSRVLPGMQAAFVDIGLDKAAFLHASDIMPHTECVAGEEQKQFTVRDISELVRQGQDLMVQVVKDPLGTKGARLTTDITLPSRYLVFMPGASHVGVSQRIESESERERLKKVVAEYCDEQGGFIIRTAAEGVGEAELASDAAYLKRVWTKVMERKKRPQTRYQLYGELALAQRVLRDFADAELDRIRVDSRLTYEALLEFTSEYIPEMTSKLEHYTGRQPIFDLFDVENEIQRALERKVELKSGGYLIIDQTEAMTTVDINTGAFVGHRNLDDTIFNTNIEATQAIARQLRLRNLGGIIIIDFIDMNNEDHRRRVLHSLEQALSKDRVKTSVNGFSALGLVEMTRKRTRESIEHVLCNECPTCHGRGTVKTVETVCYEIMREIVRVHHAYDSDRFLVYASPAVAEALKGEESHSLAEVEIFVGKQVKVQIEPLYNQEQFDVVMM” reads “not soluble”.
